Results as given in patent US20220064329A1.

Molecular target: recombinant human activated Factor VII (FVIIa) (human) (UniProt P08709)
Assay: cell-based or functional assay

Sequence of recombinant human activated Factor VII (FVIIa) (human) (P08709 61-212, chain 1 of 2): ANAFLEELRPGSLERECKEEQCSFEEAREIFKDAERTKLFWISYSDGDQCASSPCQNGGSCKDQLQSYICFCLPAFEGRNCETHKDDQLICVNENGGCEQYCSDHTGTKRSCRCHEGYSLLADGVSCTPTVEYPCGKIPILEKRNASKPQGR
Sequence of recombinant human activated Factor VII (FVIIa) (human) (P08709 213-466, chain 2 of 2): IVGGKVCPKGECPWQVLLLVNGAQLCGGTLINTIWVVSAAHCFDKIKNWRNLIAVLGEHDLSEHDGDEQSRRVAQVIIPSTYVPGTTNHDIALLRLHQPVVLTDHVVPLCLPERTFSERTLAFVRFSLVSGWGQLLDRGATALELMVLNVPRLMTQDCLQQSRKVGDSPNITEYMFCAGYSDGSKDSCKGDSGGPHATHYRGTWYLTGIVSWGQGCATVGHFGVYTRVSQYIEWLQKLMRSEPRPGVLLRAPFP

Substance	apparent second order rate constant (kinh) of inhibition of free FVIIa by antithrombin	apparent second order rate constant of inhibition of FVIIa by alpha-2-macroglobulin, no antibody
human plasma-derived antithrombin (AT) (from UniProt P01008 33-464)	124 M⁻¹ s⁻¹	
human plasma-derived alpha-2-macroglobulin (from UniProt P01023 24-1474)		475 M⁻¹ s⁻¹
